In publication PMC3355305, “Localized Dimerization and Nucleoid Binding Drive Gradient Formation by the Bacterial Cell Division Inhibitor MipZ” (Molecular Cell, 2012):

Tested on: MipZ dimer
Assay: Concentration dependence of the MipZ ATPase activity
Assay type: biochemical, Caulobacter crescentus
Experimental: Figure 2 Biochemical Analysis of MipZ Dimerization (A) ATPase cycle of MipZ. See the main text for details. (B and C) SPR analysis of MipZ self-association. MipZ or its mutant derivatives (3500 RU) were immobilized on a sensor chip and tested for homotypic interaction with the respective soluble protein (0.5 μM) in the presence of ADP (B) or ATP (C). After the binding phase, the chip was washed with buffer lacking protein and nucleotides to follow the dissociation reaction. The rate constants (koff) determined for the dissociation of the MipZ and MipZ-D42A complexes are 0.83 min^−1 and 0.067 min^−1, respectively. (D) Nucleotide-dependent dimerization of MipZ. MipZ-D42A was incubated with ADP (blue), ATP (orange) or ATPγS (red) and subjected to size exclusion chromatography. (E) ATPase activity of MipZ and its mutant derivatives. The graph gives the average turnover rate (kapp, average turnovers/min per molecule of MipZ) of the different MipZ derivatives (6 μM). Data represent the average of at least three independent experiments (±SD). Note that consistent with a critical role of the metal cofactor in dimerization and catalysis Mg^2+ was required for ATP turnover (Figure S2H). (F) Concentration dependence of the MipZ ATPase activity. The average turnover rate of MipZ (kapp) was determined at the indicated protein concentrations. Fitting of the data to a model that relates kapp to the relative abundance of dimers at the indicated MipZ concentrations (see the Experimental Procedures) yielded values of 8.0 μM (±1.2 μM) for the apparent equilibrium dissociation constant (K) of the MipZ dimer and 0.67 min^−1 (±0.03 min^−1) for the turnover number (kcat) of MipZ molecules in the dimeric state. The rate of dimer formation (kon ∼ kcat/K) derived from these values is 1.4 × 10^3 M^−1 s^−1. Data represent the mean of two independent experiments. See also Figure S2. TEXT PRINTED IN THE PICTURE: (F) MipZ: K = 8.0 μM; kcat = 0.67 min^-1 […]
According to the law of mass action, MipZ exists as a mixture of monomers (assumed to be largely in the ATP-bound state) and dimers, the equilibrium ratio of which depends on the total concentration of MipZ molecules in the reaction. […] Its average turnover rate (kapp) increased with rising protein concentrations and finally approached a plateau that likely reflects a situation in which all MipZ molecules have transitioned to the active, dimeric state. […]
β-galactosidase, MipZ, and FtsZ activity assays are detailed in the Supplemental Experimental Procedures. […]
obtained from crystals flash frozen in a solution of 95% 2 mM, sa mp le s were taken and analyzed for the amount ethanol/50 mM Tris (pH 8.5), and collected at ID23-2, of [α-32P]-GDP produced in the reaction as described ESRF (Grenoble, France). […]

B1: MipZ: P loop ATPase and cell division inhibitor of Caulobacter crescentus; hexahistidine-tagged in vitro, YFP fusion in FRAP (protein)
chain: MAETRVIVVGNEKGGAGKSTIAVHLVTALLYGGAKVAVIDLDLRQRTSARFFENRRAWLDNKKIELPEPLALNLSDNDVALAERPEEEQVAGFEAAFARAMAECDFILIDTPGGDSAITRMAHGRADLVVTPMNDSFVDFDMLGTVDPVTLELTKPSLYSLTVWEGRKQRALSGQRQAMDWVVLRNRLATTEARNRKRLEDRLNALAKRVGFRIGPGLRDRVIYRELFPFGLTIADLSPQVRPVPVSLQHLAARQELRALMHSLGLSAYSGETMLAAQ
modifications: left off: His6, end not stated, state not stated
notes: hexahistidine-tagged in vitro, YFP fusion in FRAP
ATP hydrolysis, fit of kapp vs MipZ concentration
  turnover number (kcat) of MipZ molecules in the dimeric state: 0.0112 s⁻¹
Derived from K and kcat
  rate of dimer formation (kon ∼ kcat/K): 1400 M⁻¹ s⁻¹
Fit of kapp vs MipZ concentration, 2 mM ATP, read-out: apparent equilibrium dissociation constant (K) of the MipZ dimer
  Kd: 8 µM
hydrolysis-driven dissociation
  lifetime of the sandwich dimer (τ ∼ 1/kcat): ~90 s
